Reference: US20240041987A1, “NOVEL BIOACTIVE PEPTIDE COMBINATIONS AND USES THEREOF” (COLZYX AB, priority 2020, published 2024)
Like-named read-outs stand apart in the source and are kept apart here.

Legend:
microorganisms = conditions: cited from earlier work
wound healing = conditions: cited from earlier work
[1] = 25 ± 2° C./60% RH ± 5%, 1 month
[2] = 25 ± 2° C./60% RH ± 5%, 3 months

AAKPVATKPEVPRPQAAKPA (AAK20) [collagen VI derived polypeptide]
Antimicrobial activity? (microorganisms): Yes

DVNVFAIGVEDADEGALKEIASEPLNMHMFNL (DVN32) [collagen VI derived polypeptide]
Wound healing activity? (wound healing): No
Antimicrobial activity? (microorganisms): No

EQNFHKARRFVEQVARRLTL (EQN20) [collagen VI derived polypeptide]
Antimicrobial activity? (microorganisms): Yes

FFLKDFSTKRQIIDAINKVVYKGGR (FFL25) [collagen VI derived polypeptide]
Wound healing activity? (wound healing): have wound healing properties and Yes
Antimicrobial activity? (microorganisms): Yes

FTKRFIDNLRDRYYRCDRNL (FTK20) [collagen VI derived polypeptide]
Antimicrobial activity? (microorganisms): Yes

FYLKTYRSQAPVLDAIRRLRLRGGS (FYL25) [collagen VI derived polypeptide]
Wound healing activity? (wound healing): have wound healing properties and Yes
Antimicrobial activity? (microorganisms): Yes

GFAHIRDFVSRIVRRLNIGP (GFA20) [collagen VI derived polypeptide]
Antimicrobial activity? (microorganisms): Yes

GVRPDGFAHIRDFVSRIVRRLNIGPSKV (GVR28) [peptide derived from collagen VI alpha-3 chain]
Wound healing activity? (wound healing): have wound healing properties and Yes
Appearance (25 ± 2° C./60% RH ± 5%, 0 D): White powder
Identity (RP-HPLC) (25 ± 2° C./60% RH ± 5%, 0 D): Retention Time Conforms
Purity (RP-HPLC) (25 ± 2° C./60% RH ± 5%, 0 D): 98.1%
Related Impurities (by RRT), Specified Impurity %: RRT = 0.80*, RRT = 0.81* Total (25 ± 2° C./60% RH ± 5%, 0 D): 0.07%
Related Impurities (by RRT), Specified Impurity %: RRT = 0.96* (25 ± 2° C./60% RH ± 5%, 0 D): 0.38%
Related Impurities (by RRT), Specified Impurity %: RRT = 1.04 (25 ± 2° C./60% RH ± 5%, 0 D): 0.56%
Related Impurities (by RRT), Specified Impurity %: RRT = 1.13* (25 ± 2° C./60% RH ± 5%, 0 D): 0.22%
Unspecified Impurity % (Report ≥0.10%): RRT = 0.94 (25 ± 2° C./60% RH ± 5%, 0 D): 0.15%
Unspecified Impurity % (Report ≥0.10%): RRT = 1.09 (25 ± 2° C./60% RH ± 5%, 0 D): 0.32%
Unspecified Impurity % ≤0.50% (25 ± 2° C./60% RH ± 5%, 0 D): Conforms
Water Content (KF) (25 ± 2° C./60% RH ± 5%, 0 D): 4.2%
Appearance [1]: White powder
Identity (RP-HPLC) [1]: Retention Time Conforms
Purity (RP-HPLC) [1]: 97.7%
Related Impurities (by RRT), Specified Impurity %: RRT = 0.82* [1]: 0.07%
Related Impurities (by RRT), Specified Impurity %: RRT = 0.97 [1]: 0.40%
Related Impurities (by RRT), Specified Impurity %: RRT = 1.04 [1]: 0.57%
Related Impurities (by RRT), Specified Impurity %: RRT = 1.12 [1]: 0.49%
Unspecified Impurity % (Report ≥0.10%): RRT = 0.95 [1]: 0.16%
Unspecified Impurity % (Report ≥0.10%): RRT = 1.08 [1]: 0.32%
Unspecified Impurity % ≤0.50% [1]: Conforms
Water Content (KF) [1]: 3.9%
Appearance [2]: White powder
Identity (RP-HPLC) [2]: Retention Time Conforms
Purity (RP-HPLC) [2]: 97.3%
Related Impurities (by RRT), Specified Impurity %: RRT = 0.83* [2]: 0.12%
Related Impurities (by RRT), Specified Impurity %: RRT = 0.97 [2]: 0.41%
Related Impurities (by RRT), Specified Impurity %: RRT = 1.04 [2]: 0.56%
Related Impurities (by RRT), Specified Impurity %: RRT = 1.12 [2]: 0.77%
Unspecified Impurity % (Report ≥0.10%): RRT = 0.95 [2]: 0.17%
Unspecified Impurity % (Report ≥0.10%): RRT = 1.08 [2]: 0.32%
Unspecified Impurity % ≤0.50% [2]: conforms
Water Content (KF) [2]: 3.9%
change in purity during the initial 3 months (stored at 25° C.): slight decrease in purity
Appearance (−20 ± 5° C., 0 D): White powder
Identity (RP-HPLC) (−20 ± 5° C., 0 D): Retention Time Conforms
Purity (RP-HPLC) (−20 ± 5° C., 0 D): 98.10%
Related Impurities (by RRT), Specified Impurity %: RRT = 0.80*, RRT = 0.81* Total (−20 ± 5° C., 0 D): 0.07%
Related Impurities (by RRT), Specified Impurity %: RRT = 0.96* (−20 ± 5° C., 0 D): 0.38%
Related Impurities (by RRT), Specified Impurity %: RRT = 1.04 (−20 ± 5° C., 0 D): 0.56%
Related Impurities (by RRT), Specified Impurity %: RRT = 1.13* (−20 ± 5° C., 0 D): 0.22%
Unspecified Impurity % (Report ≥0.10%): RRT = 0.94 (−20 ± 5° C., 0 D): 0.15%
Unspecified Impurity % (Report ≥0.10%): RRT = 1.09 (−20 ± 5° C., 0 D): 0.32%
Unspecified Impurity % ≤0.50% (−20 ± 5° C., 0 D): conforms
Water Content (KF) (−20 ± 5° C., 0 D): 4.2%
Appearance (−20 ± 5° C., 3 months): White powder
Identity (RP-HPLC) (−20 ± 5° C., 3 months): Retention Time Conforms
Purity (RP-HPLC) (−20 ± 5° C., 3 months): 98.10%
Related Impurities (by RRT), Specified Impurity %: RRT = 0.83* (−20 ± 5° C., 3 months): 0.04%
Related Impurities (by RRT), Specified Impurity %: RRT = 0.97 (−20 ± 5° C., 3 months): 0.38%
Related Impurities (by RRT), Specified Impurity %: RRT = 1.04 (−20 ± 5° C., 3 months): 0.54%
Related Impurities (by RRT), Specified Impurity %: RRT = 1.12 (−20 ± 5° C., 3 months): 0.20%
Unspecified Impurity % (Report ≥0.10%): RRT = 0.95 (−20 ± 5° C., 3 months): 0.17%
Unspecified Impurity % (Report ≥0.10%): RRT = 1.08 (−20 ± 5° C., 3 months): 0.31%
Unspecified Impurity % ≤0.50% (−20 ± 5° C., 3 months): conforms
Water Content (KF) (−20 ± 5° C., 3 months): 1.8%
Antimicrobial activity? (microorganisms): Yes

KGFESKVDAILNRISQMHRV (KGF20) [collagen VI derived polypeptide]
Antimicrobial activity? (microorganisms): Yes

KPEILNLVKRMKIKTGKALN (KPE20) [collagen VI derived polypeptide]
Antimicrobial activity? (microorganisms): Yes

LRLKPYGALVDKVKSFTKRF (LRL20) [collagen VI derived polypeptide]
Antimicrobial activity? (microorganisms): Yes

QAPVLDAIRRLRLRGGSPLN (QAP20) [collagen VI derived polypeptide]
Antimicrobial activity? (microorganisms): Yes

RDALKSSVDAVKYFGKGTYT (RDA20) [collagen VI derived polypeptide]
Antimicrobial activity? (microorganisms): Yes

RKVAVFFSNTPTRASPQLRE (RKV20) [collagen VI derived polypeptide]
Antimicrobial activity? (microorganisms): Yes

SFVARNTFKRVRNGFLMRKVAVFFSNTPTRASP (SFV33) [peptide derived from collagen VI alpha-3 chain]
Wound healing activity? (wound healing): No
Appearance (25 ± 2° C./60% RH ± 5%, 0 D): White powder
Identity (RP-HPLC) (25 ± 2° C./60% RH ± 5%, 0 D): Retention Time Conforms
Impurity (Report all ≥0.10%): RRT = 0.65 (25 ± 2° C./60% RH ± 5%, 0 D): 0.17%
Impurity (Report all ≥0.10%): RRT = 1.02 (25 ± 2° C./60% RH ± 5%, 0 D): 0.23%
No other individual impurity ≥0.50% (25 ± 2° C./60% RH ± 5%, 0 D): conforms
Purity (RP-HPLC) (25 ± 2° C./60% RH ± 5%, 0 D): 98.1%
Related Impurities (by RRT), Specified Impurity %: RRT = 0.90 (25 ± 2° C./60% RH ± 5%, 0 D): 0.26%
Related Impurities (by RRT), Specified Impurity %: RRT = 0.95 (25 ± 2° C./60% RH ± 5%, 0 D): 0.14%
Related Impurities (by RRT), Specified Impurity %: RRT = 0.97 (25 ± 2° C./60% RH ± 5%, 0 D): 0.47%
Water Content (KF) (25 ± 2° C./60% RH ± 5%, 0 D): 4.7%
Appearance [1]: White powder
Identity (RP-HPLC) [1]: Retention Time Conforms
Impurity (Report all ≥0.10%): RRT = 0.66 [1]: 0.13%
Impurity (Report all ≥0.10%): RRT = 0.85 [1]: 0.11%
Impurity (Report all ≥0.10%): RRT = 1.02 [1]: 0.31%
Impurity (Report all ≥0.10%): RRT = 1.04 [1]: 0.17%
Impurity (Report all ≥0.10%): RRT = 1.08 [1]: 0.24%
No other individual impurity ≥0.50% [1]: conforms
Purity (RP-HPLC) [1]: 97.8%
Related Impurities (by RRT), Specified Impurity %: RRT = 0.90 [1]: 0.24%
Related Impurities (by RRT), Specified Impurity %: RRT = 0.95 [1]: 0.13%
Related Impurities (by RRT), Specified Impurity %: RRT = 0.97 [1]: 0.47%
Water Content (KF) [1]: 6.8%
Appearance [2]: White powder
Identity (RP-HPLC) [2]: Retention Time Conforms
Impurity (Report all ≥0.10%): RRT = 0.62 [2]: 0.15%
Impurity (Report all ≥0.10%): RRT = 0.84 [2]: 0.28%
No other individual impurity ≥0.50% [2]: Not conforms *
Purity (RP-HPLC) [2]: 96.9%
Related Impurities (by RRT), Specified Impurity %: RRT = 0.90 [2]: 0.20%
Related Impurities (by RRT), Specified Impurity %: RRT = 0.95 [2]: 0.09%
Related Impurities (by RRT), Specified Impurity %: RRT = 0.97 [2]: 0.42%
Water Content (KF) [2]: 8.4%
change in purity during the initial 3 months (stored at 25° C.): slight decrease in purity
new impurities (stored at 25° C., at 3 months): some new impurities were detected
change of water content (stored at 25° C., over the 3 months): increased
Appearance (−20 ± 5° C., 0 D): White powder
Identity (RP-HPLC) (−20 ± 5° C., 0 D): Retention Time Conforms
Impurity (Report all ≥0.10%): RRT = 0.65 (−20 ± 5° C., 0 D): 0.17%
Impurity (Report all ≥0.10%): RRT = 1.02 (−20 ± 5° C., 0 D): 0.23%
No other individual impurity ≥0.50% (−20 ± 5° C., 0 D): conforms
Purity (RP-HPLC) (−20 ± 5° C., 0 D): 98.1%
Related Impurities (by RRT), Specified Impurity %: RRT = 0.90 (−20 ± 5° C., 0 D): 0.26%
Related Impurities (by RRT), Specified Impurity %: RRT = 0.95 (−20 ± 5° C., 0 D): 0.14%
Related Impurities (by RRT), Specified Impurity %: RRT = 0.97 (−20 ± 5° C., 0 D): 0.47%
Water Content (KF) (−20 ± 5° C., 0 D): 4.7%
Appearance (−20 ± 5° C., 1 month): White powder
Identity (RP-HPLC) (−20 ± 5° C., 1 month): Retention Time Conforms
Impurity (Report all ≥0.10%): RRT = 1.03 (−20 ± 5° C., 1 month): 0.24%
No other individual impurity ≥0.50% (−20 ± 5° C., 1 month): conforms
Purity (RP-HPLC) (−20 ± 5° C., 1 month): 98.3%
Related Impurities (by RRT), Specified Impurity %: RRT = 0.90 (−20 ± 5° C., 1 month): 0.23%
Related Impurities (by RRT), Specified Impurity %: RRT = 0.95 (−20 ± 5° C., 1 month): 0.10%
Related Impurities (by RRT), Specified Impurity %: RRT = 0.98 (−20 ± 5° C., 1 month): 0.44%
Water Content (KF) (−20 ± 5° C., 1 month): 4.9%
Antimicrobial activity? (microorganisms): Yes

TKRFAKRLAERFLTAGRTDP (TKR20) [collagen VI derived polypeptide]
Antimicrobial activity? (microorganisms): Yes

TSSPTSNPVTTTKPVTTTKPVTTTTKPVTTTTKPVT (TSS36) [collagen VI derived polypeptide]
Antimicrobial activity? (microorganisms): Yes

TTKPVTTTKPVTTTTKPVTT (TTK20) [collagen VI derived polypeptide]
Antimicrobial activity? (microorganisms): Yes

VAAKPVATKMAVRPPVAVKP (VAA20) [collagen VI derived polypeptide]
Antimicrobial activity? (microorganisms): Yes

VTTEIRFADSKRKSVLLDKIKNLQVALTSK (VTT30) [collagen VI derived polypeptide]
Wound healing activity? (wound healing): have wound healing properties and Yes
Antimicrobial activity? (microorganisms): Yes

VVHAINAIVRSPRGGARRHA (VVH20) [collagen VI derived polypeptide]
Antimicrobial activity? (microorganisms): Yes

YDRLIKESRRQKTRVFAVVI (YDR20) [collagen VI derived polypeptide]
Antimicrobial activity? (microorganisms): Yes

B1: AAAKPAPAKPVAAKPVATKMATVRPPVAVKPATAAKPVAAKPAAVRPPAAAAAKPVATKPEVPRPQAAKPAATKPA (peptide)
chain: AAAKPAPAKPVAAKPVATKMATVRPPVAVKPATAAKPVAAKPAAVRPPAAAAAKPVATKPEVPRPQAAKPAATKPA
modifications: AAA76
notes: collagen VI derived polypeptide
Antimicrobial activity? (microorganisms): Yes
